Laboratory results as given in patent publication US20160130362A1 (Genmab, published 2016).

Tests used:
[1] = target: T1, human CD38 on cells (CHO-CD38 cells, Daudi-luc cells, fresh multiple myeloma tumor cells) (human, UniProt P28907 1-300); test: cell-based or functional assay
[2] = target: T1, human CD38 on cells (CHO-CD38 cells, …); test: cell-based or functional assay; remark: listed apart in the source
[3] = target: His-CD38 (His-tagged extracellular domain of human CD38) (human, UniProt P28907 43-300); test: cell-based or functional assay
[4] = target: T1, human CD38 on cells (CHO-CD38 cells, …); test: cell-based or functional assay; remark: listed apart in the source
[5] = target: T1, human CD38 on cells (CHO-CD38 cells, …); test: cell-based or functional assay; remark: listed apart in the source
[6] = target: T1, human CD38 on cells (CHO-CD38 cells, …); test: flow cytometry on fresh MM tumor cells, FITC-labelled antibody
[7] = target: T1, human CD38 on cells (CHO-CD38 cells, …); test: flow cytometry on CHO-CD38 cells, anti-human IgG-FITC detection
[8] = target: T1, human CD38 on cells (CHO-CD38 cells, …); test: flow cytometry on Daudi-luc cells, anti-human IgG-FITC detection
[9] = target: T2, HA-CD38 (HA-tagged extracellular domain of human CD38, wild type) (human, UniProt P28907 43-300); test: SPR (Biacore 3000), antibody immobilized on CM-5 chip, HA-CD38 flowed over, 25° C., mean of 3 ± SD
T2 construct: also called HA-tagged CD38; wt human CD38; not shown: HA-tag introduced by the forward PCR primer, after signal peptide SPHMM

[10] = target: T3, cynomolgus monkey CD38 (on lymphoid tissue, lymphocytes and monocytes) (cynomolgus monkey, UniProt Q5VAN0 1-301); test: flow cytometry on cynomolgus lymphocytes, detection with FITC-labeled rabbit anti-human IgG (Example 11)
T3 construct: whole, on cells; also called cynomolgus CD38

[11] = target: T3, cynomolgus monkey CD38 (on lymphoid …); test: immunohistochemistry on frozen cynomolgus tissue sections
[12] = target: T1, human CD38 on cells (CHO-CD38 cells, …); test: flow cytometry on CHO-CD38 cells, detection with rabbit anti-human IgG-FITC (Example 4)

| EC50, ADCC of Daudi-luc cells (51Cr release) [1] [µg/mL] | EC50, ADCC of fresh MM tumor cells (51Cr release) [1] [µg/mL] | EC50, CDC of CD38-CHO cells (PI-positive cells) [2] [µg/mL] | EC50, CDC of Daudi-luc cells (PI-positive cells) [2] [µg/mL] | cGDPribose production (% of NGD control), 0.03 µg/ml antibody [3] | cGDPribose production (% of NGD control), 0.3 µg/ml antibody [3] | cGDPribose production (% of NGD control), 3 µg/ml antibody [3] | cGDPribose production (% of NGD control), 30 µg/ml antibody [3] | Log EC50 of lysis (table captioned CDC; the text ties log EC50 values to ADCC of Daudi cells) [4] | EC50 of lysis of CHO-CD38 cells (table captioned ADCC; the text ties these values to CDC) [5] [µg/mL] | EC50 [6] [µg/mL] | EC50 [7] [µg/mL] | EC50 [8] [µg/mL] | Ka [9] [M⁻¹] | Kd [9] [pM] | binding result [10] | binding result [11] | EC50 (read off the curve) [12] [µg/mL] | Binder |
| --- | --- | --- | --- | --- | --- | --- | --- | --- | --- | --- | --- | --- | --- | --- | --- | --- | --- | --- |
| 0.009 | 0.027 | 3.14 | > 90 | 107 % of NGD control | 107 % of NGD control | 100 % of NGD control | 99 % of NGD control | 1.17 | 4.5 | 0.56 | 0.54 | 0.26 | 1.14e+09 | 885 | binds | – | – | -003 (antibody, human IgG1, V domains shown, Human monoclonal IgG1 antibody; The recombinant form was cloned into pConG1f0.4 (human IgG1 constant region) and pConKappa0.4 (kappa constant region); FITC-labelled in some assays; also called antibody -003; HuMab -003) VH: not shown VL: DIQMTQSPSSLSASVGDRVTITCRASQGISSWLAWYQQKPEKAPKSLIYAASSLQSGVPSRFSGSGSGTDFTLTISSLQPEDFATYYCQQYNSYPRTFGQGTKVEIK |
| 0.0097 | 0.056 | 0.24 | > 90 | 105 % of NGD control | 104 % of NGD control | 100 % of NGD control | 99 % of NGD control | – | – | 0.02 | 0.08 | 0.05 | – | – | – | binds | ~0.2 | -024 (antibody, human IgG1, V domains shown, Human monoclonal IgG1 antibody; The recombinant form was cloned into pConG1f0.4 (human IgG1 constant region) and pConKappa0.4 (kappa constant region); also called antibody -024) VH: EVQLVQSGAEVKKPGESLKISCKGSGYSFSNYWIGWVRQMPGKGLEWMGIIYPHDSDARYSPSFQGQVTFSADKSISTAYLQWSSLKASDTAMYYCARHVGWGSRYWYFDLWGRGTLVTVSS VL: EIVLTQSPATLSLSPGERATLSCRASQSVSSYLAWYQQKPGQAPGLLIYDASNRASGIPARFSGSGSGTDFTLTISSLEPEDFAVYYCQQRSNWPLTFGGGTKVEIK |
| – | – | – | – | 102 % of NGD control | 98 % of NGD control | 66 % of NGD control | 68 % of NGD control | – | – | – | – | – | – | – | – | – | – | -005 (antibody, human IgG1, V domains shown) VH: EVQLLESGGGLVQPGGSLRLSCAVSGFTFNSFAMSWVRQAPGKGLEWVSAISGSGGGTYYADSVKGRFTISRDNSKNTLYLQMNSLRAEDTAVYFCAKDKILWFGEPVFDYWGQGTLVTVSS VL: not shown |
